Experimental data as given in patent publication US20050009149A1.
Several values for one entry are separate records, joined by “and”; a condition that tells them apart may be missing. Equal values may be shown once.

Tests used:
zTNF4 = zTNF4 (UniProt Q9Y275); assay: cell-based or functional assay
[1] = molecular target: human TACI on Jurkat TACI KZ142 Luciferase cells (human) (UniProt O14836); assay: cell-based or functional assay
Chain of UniProt O14836 (O14836 whole entry): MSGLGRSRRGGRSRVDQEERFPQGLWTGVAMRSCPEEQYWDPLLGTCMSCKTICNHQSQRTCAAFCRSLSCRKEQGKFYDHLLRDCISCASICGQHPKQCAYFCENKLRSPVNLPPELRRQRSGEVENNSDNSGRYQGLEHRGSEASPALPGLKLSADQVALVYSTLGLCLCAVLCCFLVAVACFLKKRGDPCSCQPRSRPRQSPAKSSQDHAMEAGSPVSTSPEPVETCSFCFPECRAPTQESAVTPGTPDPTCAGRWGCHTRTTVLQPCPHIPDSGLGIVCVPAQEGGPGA

EC50, inhibition of zTNF4-stimulated human B-cell proliferation (3H-thymidine incorporation) (zTNF4) [nM] | fold effectiveness against TACI-Fc5, inhibition of zTNF4-induced B-cell proliferation (zTNF4) [times] | fold efficiency at inhibiting zTNF4-stimulated proliferation of human B-cells (zTNF4) [fold] | luciferase responsiveness of Jurkat TACI KZ142 Luciferase cells [1] | Substance
0.057 | 19 | 10 |  | TACI-NC1 (fusion of an extracellular domain of TACI and the NC1 domain of human collagen X, with Glu-Glu tag)
1.1 |  |  |  | TACI-Fc fusion protein (from UniProt O14836 1-165)
 |  |  | 18 fold and 10 fold | zTNF4 (from UniProt Q9Y275 134-285) (ligand)
